Legend:
[1] = system: CCOC(=O)[C@H](Cc1ccc(O)cc1)NC(=O)c1ccccc1; experiment: purified protein; settings: 25 C, same experiment as chymase, unit M not printed beside this value
[2] = target: T1, rat mast cell chymase (Rattus norvegicus, UniProt P09650); experiment: […]-casein proteolysis assay; assay type: biochemical; settings: read-out: % inhibition at 300 mM
T1 sequence (P09650 21-260): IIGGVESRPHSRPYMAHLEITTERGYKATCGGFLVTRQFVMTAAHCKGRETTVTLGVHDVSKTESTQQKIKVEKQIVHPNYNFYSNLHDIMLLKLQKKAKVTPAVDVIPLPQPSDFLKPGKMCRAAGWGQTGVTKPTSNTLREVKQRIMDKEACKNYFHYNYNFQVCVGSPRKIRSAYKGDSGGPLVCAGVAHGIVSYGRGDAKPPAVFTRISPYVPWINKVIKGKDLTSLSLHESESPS

[3] = target: T1, rat mast cell chymase; experiment: […]-casein proteolysis assay; assay type: biochemical
[4] = substrate: CCOC(=O)[C@H](Cc1ccc(O)cc1)NC(=O)c1ccccc1; experiment: purified protein; assay type: biochemical, Rattus norvegicus; settings: 25 C, abstract and summary print 1.5 x 10^-3 M (apparent Km)

Question: With alpha-chymotrypsin (Bos taurus) as the molecule, how does the Km [1] read?
Answer: 1170 µM

Question: With `NCCc1c[nH]cn1` [histamine] as the molecule, how does the inhibition at 300000 µM [2] read?
Answer: 20%

Question: With `NCCc1c[nH]c2ccc(O)cc12` [5-HT] as the molecule, how does the IC50 [3] read?
Answer: 3 mM

B1: rat mast cell chymase (Rattus norvegicus) (protein)
chain: T1 sequence (P09650 21-260)
Question: B1 was tested. Which Km [4] did it give?
Answer: 1560 µM
